Source: publication PMC3869713
pKd: −log10 of the molar value.

Tests used:
CHK2 [1] = molecular target: CHK2 (UniProt O96017); experiment: F-EMSA; conditions: 25 mM Tris-HCl pH 8.0, 10 mM NaCl, 25 mM KCl, 5 mM MgCl2, 0.01% IGEPAL CA630, 10 ug/ml yeast tRNA, SUPERase-In; 2 nM RNA, room temperature 2 h; F-EMSA on …
CHK2 [2] = molecular target: CHK2 (UniProt O96017); experiment: fluorescence polarization; conditions: 25 mM Tris-HCl pH 8.0, 10 mM NaCl, 25 mM KCl, 5 mM MgCl2, 0.01% IGEPAL CA630, 10 ug/ml yeast tRNA, SUPERase-In; 2 nM RNA, room temperature 2 h; F-EMSA on …

CHK2, sequence (O96017 whole entry): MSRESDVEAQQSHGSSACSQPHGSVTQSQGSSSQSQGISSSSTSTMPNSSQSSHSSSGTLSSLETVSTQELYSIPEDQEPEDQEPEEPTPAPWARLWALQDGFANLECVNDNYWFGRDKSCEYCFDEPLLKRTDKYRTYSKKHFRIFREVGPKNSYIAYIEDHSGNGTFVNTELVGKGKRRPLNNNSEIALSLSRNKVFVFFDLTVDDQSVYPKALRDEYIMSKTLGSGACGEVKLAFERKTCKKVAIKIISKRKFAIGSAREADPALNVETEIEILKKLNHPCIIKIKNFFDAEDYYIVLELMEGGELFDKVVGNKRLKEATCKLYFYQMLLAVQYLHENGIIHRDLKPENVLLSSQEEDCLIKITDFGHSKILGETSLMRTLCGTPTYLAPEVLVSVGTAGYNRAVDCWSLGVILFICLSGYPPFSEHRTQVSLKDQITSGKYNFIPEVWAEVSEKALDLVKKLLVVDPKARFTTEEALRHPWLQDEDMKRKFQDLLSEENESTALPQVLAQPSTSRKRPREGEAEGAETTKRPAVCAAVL

Sequence: GGGAAUGGAUCCACAUCUACGAAUUCGAUCGGUUCCAACGCUCUGUCGCCUAAGUGAACAGAUGAAGAAAAAAUAGCCCAAUAAGAGGCAACAAUCUUUCACUGCAGACUUGACGAAGCUU [C6M1]
- pKd (CHK2 [1]): 6.74
- pKd (CHK2 [2]): 6.52
